Results as given in the supplement of paper PMC9112550, “Optimization of the antimicrobial peptide Bac7 by deep mutational scanning” (BMC Biology, 2022).

Each sequence was assayed on Escherichia coli TOP10 (assay: shrunken log2 fold change of peptide-encoding DNA abundance (4.5 h post-induction vs induction); higher = less antimicrobial activity (less host growth inhibition)). Details: time post-induction: 4.5 h; library: site-saturation at positions 5, 18, 19, 20.
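Also: peptides expressed intracellularly from a pBAD plasmid library in pooled LB shake-flask culture, induced with 0.3% L-arabinose, DNA abundance read by NGS, three biological replicates, DESeq2 with apeglm shrinkage.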

| Sequence | shrunken log2 fold change |
| --- | --- |
| RRIRARPPRLPRPRPRPWTTPRP | 0.0452 |
| RRIRARPPRLPRPRPRPWTWPRP | -0.327 |
| RRIRARPPRLPRPRPRPWVTPRP | -0.127 |
| RRIRARPPRLPRPRPRPWYRPRP | -0.099 |
| RRIRARPPRLPRPRPRPYAAPRP | 0.375 |
| RRIRARPPRLPRPRPRPYAKPRP | 0.249 |
| RRIRARPPRLPRPRPRPYCFPRP | -0.178 |
| RRIRARPPRLPRPRPRPYDLPRP | 0.0526 |
| RRIRARPPRLPRPRPRPYEEPRP | -0.441 |
| RRIRARPPRLPRPRPRPYFDPRP | -0.123 |
| RRIRARPPRLPRPRPRPYFIPRP | -0.73 |
| RRIRARPPRLPRPRPRPYFYPRP | -0.619 |
| RRIRARPPRLPRPRPRPYGCPRP | -0.55 |
| RRIRARPPRLPRPRPRPYGSPRP | -0.0423 |
| RRIRARPPRLPRPRPRPYHIPRP | -0.356 |
| RRIRARPPRLPRPRPRPYKFPRP | -0.279 |
| RRIRARPPRLPRPRPRPYMFPRP | -0.262 |
| RRIRARPPRLPRPRPRPYNEPRP | -0.524 |
| RRIRARPPRLPRPRPRPYPLPRP | -0.127 |
| RRIRARPPRLPRPRPRPYPTPRP | -0.0691 |
| RRIRARPPRLPRPRPRPYQKPRP | -0.0277 |
| RRIRARPPRLPRPRPRPYQNPRP | -0.559 |
| RRIRARPPRLPRPRPRPYQYPRP | -0.352 |
| RRIRARPPRLPRPRPRPYRDPRP | -0.761 |
| RRIRARPPRLPRPRPRPYSFPRP | -0.0794 |

| Sequence | shrunken log2 fold change |
| --- | --- |
| RRIRARPPRLPRPRPRPYSLPRP | -0.187 |
| RRIRARPPRLPRPRPRPYSPPRP | -0.409 |
| RRIRARPPRLPRPRPRPYSQPRP | -0.135 |
| RRIRARPPRLPRPRPRPYVCPRP | -0.255 |
| RRIRARPPRLPRPRPRPYWAPRP | -0.106 |
| RRIRARPPRLPRPRPRPYYIPRP | -0.409 |
| RRIRARPPRLPRPRPRPYYMPRP | -0.687 |
| RRIRARPPRLPRPRPRPYYYPRP | -0.602 |
| RRIRCRPPRLPRPRPRPAAFPRP | 0.292 |
| RRIRCRPPRLPRPRPRPAAGPRP | 0.378 |
| RRIRCRPPRLPRPRPRPACHPRP | -0.315 |
| RRIRCRPPRLPRPRPRPACQPRP | 0.305 |
| RRIRCRPPRLPRPRPRPACRPRP | 0.128 |
| RRIRCRPPRLPRPRPRPACSPRP | -0.0823 |
| RRIRCRPPRLPRPRPRPAEFPRP | -0.0616 |
| RRIRCRPPRLPRPRPRPAEYPRP | -0.335 |
| RRIRCRPPRLPRPRPRPAFPPRP | 0.16 |
| RRIRCRPPRLPRPRPRPAFRPRP | 0.25 |
| RRIRCRPPRLPRPRPRPAHAPRP | 0.373 |
| RRIRCRPPRLPRPRPRPAIWPRP | 0.346 |
| RRIRCRPPRLPRPRPRPAKEPRP | -0.0092 |
| RRIRCRPPRLPRPRPRPALRPRP | 0.457 |
| RRIRCRPPRLPRPRPRPAMPPRP | -0.054 |
| RRIRCRPPRLPRPRPRPANCPRP | -0.364 |
| RRIRCRPPRLPRPRPRPAQSPRP | 0.345 |

| Sequence | shrunken log2 fold change |
| --- | --- |
| RRIRCRPPRLPRPRPRPAQYPRP | -0.467 |
| RRIRCRPPRLPRPRPRPAREPRP | 0.0467 |
| RRIRCRPPRLPRPRPRPARFPRP | 0.558 |
| RRIRCRPPRLPRPRPRPASEPRP | 0.49 |
| RRIRCRPPRLPRPRPRPATDPRP | -0.112 |
| RRIRCRPPRLPRPRPRPATLPRP | -0.154 |
| RRIRCRPPRLPRPRPRPATTPRP | 0.151 |
| RRIRCRPPRLPRPRPRPAVTPRP | 0.0305 |
| RRIRCRPPRLPRPRPRPAWSPRP | 0.15 |
| RRIRCRPPRLPRPRPRPAWVPRP | 0.316 |
| RRIRCRPPRLPRPRPRPCEAPRP | -0.369 |
| RRIRCRPPRLPRPRPRPCENPRP | 0.0291 |
| RRIRCRPPRLPRPRPRPCGDPRP | 0.0996 |
| RRIRCRPPRLPRPRPRPCGKPRP | -0.0972 |
| RRIRCRPPRLPRPRPRPCGWPRP | 0.456 |
| RRIRCRPPRLPRPRPRPCGYPRP | -0.144 |
| RRIRCRPPRLPRPRPRPCHYPRP | -0.403 |
| RRIRCRPPRLPRPRPRPCKGPRP | 0.035 |
| RRIRCRPPRLPRPRPRPCKHPRP | -0.339 |
| RRIRCRPPRLPRPRPRPCKMPRP | 5.36 |
| RRIRCRPPRLPRPRPRPCKYPRP | -0.227 |
| RRIRCRPPRLPRPRPRPCLQPRP | -0.129 |
| RRIRCRPPRLPRPRPRPCNLPRP | -0.0646 |
| RRIRCRPPRLPRPRPRPCRLPRP | -0.3 |
| RRIRCRPPRLPRPRPRPCRRPRP | 0.0819 |
